Assay results: US20070014720A1 (published 2007)

T1: human CD20 (human, UniProt P11836 1-297)
T1 construct: whole, on cells; In all assays CD20 stood on cells; also called CD20 antigen
T1 sequence (looked up): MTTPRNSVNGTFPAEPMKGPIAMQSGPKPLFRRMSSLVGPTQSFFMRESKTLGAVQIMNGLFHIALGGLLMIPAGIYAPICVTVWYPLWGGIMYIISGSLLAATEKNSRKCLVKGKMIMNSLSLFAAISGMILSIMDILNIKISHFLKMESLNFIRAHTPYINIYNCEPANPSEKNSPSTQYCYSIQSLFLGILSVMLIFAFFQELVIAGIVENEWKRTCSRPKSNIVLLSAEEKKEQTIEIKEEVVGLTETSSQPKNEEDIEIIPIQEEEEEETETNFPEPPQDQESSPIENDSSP

B1: mAb 1.5.3 (ATCC Accession Number PTA-7330) (antibody, human IgG1, V domains shown)
VH: EVQLVQSGAEVKKPGESLKISCKGSGYSFTSYWIGWVRQMPGKGLEWMGIIYPGDSDTRYSPSFQGQVTISADKSITTAYLQWSSLKASDTAMYYCARHPSYGSGSPNFDYWGQGTLVTVSS
VL: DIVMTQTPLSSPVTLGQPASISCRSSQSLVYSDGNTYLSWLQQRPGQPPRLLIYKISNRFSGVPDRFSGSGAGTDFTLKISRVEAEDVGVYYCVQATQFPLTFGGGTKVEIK
notes: Fully human IgG1 kappa; also called 50-001H1_5_3
B2: mAb 2.4.1 (antibody, human IgG1, V domains shown)
VH: EVQLVQSGAEVKKPGESLKISCKGSGYSFTNYWIGWVRQMPGKGLEWMGIIYPGDSDTRYSPSFQGQVTISADKSISTAYLQWSSLKASDTAMYYCARHGDYYASESSAFDIWGQGTMVTVSS
VL: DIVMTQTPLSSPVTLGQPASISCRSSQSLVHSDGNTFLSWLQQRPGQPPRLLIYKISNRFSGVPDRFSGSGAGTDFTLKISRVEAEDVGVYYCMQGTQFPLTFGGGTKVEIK
B3: mAb 1.4.3 (antibody, human IgG1, V domains shown)
VH: EVQLVQSGAEVKKPGESLKISCKGSGYSFTSYWIGWVRQMPGKGLEWMGIIYPGDSDTRYSPSFQGQVTISADKSITTAYLQWSSLKASDTAMYYCARHPSYGSGSPNFDYWGQGTLVTVSS
VL: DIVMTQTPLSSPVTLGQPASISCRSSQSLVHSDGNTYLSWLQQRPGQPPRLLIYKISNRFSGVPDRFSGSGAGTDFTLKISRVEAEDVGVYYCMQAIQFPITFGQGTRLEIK
B4: mAb 1.6.2 (antibody, human IgG1, V domains shown)
VH: EVQLVQSGAEVKKPGESLKISCKGSGYSFTSYWIGWVRQMPGKGLEWMGIIYPGDSDTRYSPSFQGQVTISADKSISTAYLQWSSLKASDTAMYYCARHGDYSNIDAFDIWGQGTMVTVSS
VL: DVVMTQSPLSLPVTLGQPASISCRSSQSLVYSDGNAYLNWFQQRPGQSPRRLIYKVSNWDSGVPDRFSGSGSGTDFTLKIRRVEAEDVGAYYCMQGIHCTFGPGTKVHIK
B5: mAb 1.9.2 (antibody, human IgG1, V domains shown)
VH: EVQLVQSGAEVKKPGESLKISCKGSGYSFTSYWIGWVRQMPGKGLEWMGIIYPGDSDTRYSPSFQGQVTISADKSISTAYLQWSSLKASDTAMYYCARHGDFWSGYYSFDYWGQGTLVTVSS
VL: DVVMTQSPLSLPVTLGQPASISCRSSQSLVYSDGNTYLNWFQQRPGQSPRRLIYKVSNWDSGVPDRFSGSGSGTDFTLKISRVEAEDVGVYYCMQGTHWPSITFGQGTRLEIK
B6: mAb 1.10.3.1 (antibody, human IgG1, V domains shown)
VH: EVQLVQSGAEVKKPGESLKISCKGSGYSFTSYWIGWVRQMPGKGLEWMGIIYPGDSDTRYSPSFQGQVTISADKSISTAYLQWSSLKASDTAMYYCARMGDFWSGYYTRGMDVWGQGTTVTVSS
VL: EIVMTQSPATLSVSPGERATLSCRASQSVSSNLAWYQQKPGQAPRLLISGASTRATGIPARFSGSGSGTEFTLTISSLQSEDFAVYYCHQYNDWSLTFGGGTKVEIK
notes: Human IgG1 kappa; also called 50-001H1_10_3_1

Assays:
human CD20 [1] = target: T1, human CD20; test: FACS KD on SB cells expressing CD20 (GMF against mAb concentration, nonlinear fit)
Experimental: The affinity of purified antibodies against CD20 (mAbs 1.1.2, 1.2.1, 2.1.2, 1.3.3, 1.5.3, 1.10.3.1, 1.13.2), Rituximab (positive control), and B1 was determined by FACS. Briefly, SB cells expressing CD20 were resuspended in FACS buffer (2% FBS, 0.05% NaN₃) at a concentration of approximately 5 million cells/mL. HSB cells were also resuspended in FACS buffer at a concentration of approximately 9 million cells/mL. Cells were kept on ice. Purified antibodies were serially diluted in filtered 1×PBS (2×) across 11 wells in 96-well plates. The twelfth well in each row contained buffer only. 1×PBS and cells were added to each mAb well such that the final volume was […] and each well contained approximately 375,000 cells. The final molecular concentration ranges for the mAbs were as follows:
Plates were placed on a plate shaker for 3 hours at 4° C., then spun and washed 3× with PBS. 200 μL of 145 nM Cy5 goat α-human polyclonal antibody was added to each well, and 200 μL of 192 nM Cy5 goat α-mouse polyclonal antibody was added to the cells complexed with B1 antibody. Plates were then incubated for 40 minutes at 4° C., then spun and washed 3× with PBS.
The Geometric Mean Fluorescence (GMF) of 10,000 cells for each mAb concentration was determined using a FACSCalibur instrument. No significant nonspecific binding (no significant signal) was apparent from the HSB cells. In each row containing the SB cells, the signal from the twelfth well (containing buffer only) was subtracted from the signal from the first 11 wells. A nonlinear plot of GMF as a function of molecular mAb concentration was fit using Scientist software using the equation: […]

human CD20 [2] = target: T1, human CD20; test: cell-based or functional assay

Row | Binder | Kd (human CD20 [1]) | % Lysis Daudi 0.001 µg/ml ADCC (human CD20 [2]) | % Lysis Daudi 1 µg/ml ADCC (human CD20 [2]) | % Lysis Raji 0.001 µg/ml ADCC (human CD20 [2]) | % Lysis Raji 1 µg/ml ADCC (human CD20 [2]) | % Lysis Ramos 0.001 µg/ml ADCC (human CD20 [2]) | % Lysis Ramos 1 µg/ml ADCC (human CD20 [2]) | EC50 µg/ml Daudi CDC (human CD20 [2]) | EC50 µg/ml Raji CDC (human CD20 [2]) | EC50 µg/ml Ramos Apoptosis Alamar Blue (human CD20 [2]) | EC50 µg/ml Ramos Apoptosis Annexin V (human CD20 [2]) | EC50 µg/ml Ramos Apoptosis Cell Titer Glo (human CD20 [2]) | EC50 µg/ml Ramos Apoptosis WST-1 (human CD20 [2]) | EC50 µg/ml Ramos CDC (human CD20 [2])
1 | B1 | 9.1 nM | 66% | 79% | 10% | 53% | 8% | 60% | ~10 µg/mL | 0.53 µg/mL | 0.08 µg/mL | 1.03 µg/mL | 0.191 µg/mL | 0.037 µg/mL | 2.56 µg/mL
2 | B2 |  | 36% | 76% | 9% | 24% | -3% | 46% | ~10 µg/mL | 3.72 µg/mL | 0.112 µg/mL | 4.68 µg/mL | 0.983 µg/mL | 0.042 µg/mL | 3.12 µg/mL
3 | B3 |  | 62% | 72% | 7% | 37% | 4% | 52% | ~10 µg/mL | 1.3 µg/mL | 0.11 µg/mL | 2.86 µg/mL | 0.342 µg/mL | 0.0514 µg/mL | 13.1 µg/mL
4 | B4 |  | 77% | 79% | 5% | 36% | 3% | 43% | ~10 µg/mL | 0.38 µg/mL | 0.16 µg/mL | 0.67 µg/mL | 0.476 µg/mL | 0.0393 µg/mL | 0.31 µg/mL
5 | B5 |  | 19% | 74% | 5% | 17% | 3% | 40% | > 10 µg/mL | 52.9 µg/mL |  |  | 0.528 µg/mL |  | > 10 µg/mL
6 | B6 | 11.2 nM |  |  |  |  |  |  |  |  |  |  |  |  | 
